Experimental data taken from the nanobody polyreactivity screen of Harvey et al. (2022).

Assay: yeast display, Sf9 membrane polyspecificity reagent, FACS + sequencing; frameworks hold sequencing errors
Summary of the method: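 Nanobodies came from a synthetic yeast display library in Saccharomyces cerevisiae BJ5465, induced with galactose for 36–48 hours and stained for 1 hour at 4 °C with 10% biotinylated, detergent-solubilized Sf9 membrane reagent. Cells were enriched on streptavidin microbeads and then FACS-sorted, with low and high (top ~1%) gates set on anti-HA fluorescence for expression and streptavidin fluorescence for reagent binding. Each polyreactivity label reflects the gate a clone came from. Genes were amplified by colony PCR, sequenced by MiSeq 2 × 250 and filtered by CDR length.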

| Sequence | polyreactivity (PSR sort gate) |
| --- | --- |
| QVQLVESGGGLVQAGGSLRLSFAASGSTFPVYTMGWYRQAPGKERELVAAITGSGGRTYYADSVKGRFTISRDNAKNTVYLQMNSLKPEDTAVYYCNAYPKGRYAAAFPGMDYWGQGTQVTVSS | high polyreactivity |
| QVQLVESGGGLVQAGGSLRLSCAASGSIFDGSAMGWYRQAPGKERELVASISSGGSTNYADSVKGRFTISRDNAKNTVYLQMNSMKPEDTAVYYCAAEWVWYKWEFEYWGQGTQVSVSS | high polyreactivity |
| QVQLVESGGGVVQAGGSLRLSCAASGINFGRNTMGWYRQAPGKERELVAAIDSGGNTYADSVKGRFTISRDNAKNTVYLQMNSLKPEDTAVYYCAVDGGEFSSYGYWGQGTQVTVSS | low polyreactivity |
| QVQLVESVGGLVQAGGSLRLSCAASGYTFYRYAMGWYRQAPGKESELVAGISRDGGSTYYADSVKGRFTISRDNAKNTVYLQMNSLKPEDTAVYYCAADKTRYRLGRDYWGQGTQVTVSS | low polyreactivity |
| QVQRVESGGGLVQAGGSLLLSCAASGRIFVTYAKGWYRQAPGKERDLVASITGGGSRYYADSVKGRVTISRDKAKTTVYVQMTRLKPEDPAVNYCAAKSRSWYFGYGYWGQGTQVTVSS | high polyreactivity |
| QVQLVESGGGLVQAGGSLRLSCAASGSTFFDYAMGWYRQAPGKVRELVAVISDGGTTTYADSVKGRFTISRDNAKNTVYLQMNSLKPEDTAVYYCAAENQDGLLVILGGYGYWGQGTQVTVSS | low polyreactivity |
| QVQLEESGGGLVQAGGSLRLSCAAYGFTIVGNTMGWYRQAPGKERELVASINTNGGSTYYADSVKGRFTISRDNAKNTVYLQMNSLKPEDTAVYYCNARSWYPYDYWGQGTQVTVSS | low polyreactivity |
| QVQLVESGGGLDQAGGSLRLSSAASGSIFRGNAMGWYRQAPGKERELVAGINRAGSTKYADSVKGRFTISRDNAKNTVYLQMNSLIPEDTAVYYCAAVRYERGLWSDYWGQGTQVTVSS | high polyreactivity |
| QVQLQESGGGLVQAGGSLRLSCAASGSISYPRTMGWYREAPGKEREFVAGIGVGGTTYYADSVKGRFTISRDNAKNTVYLQMNSLKPEDAAVYYCAVAAYYDKYYVYWGQGTQVTVSC | low polyreactivity |
| QVQLVESGGGLVQAGGSLRLICAASGNIFYRYAMGWYRQAPGKERELVAAISGNSGNTYYADSVKGRFTISRDNAKNTVYLQMNSLKPEDTAVYYCNARVVVRRDYWGQGTQVTVSS | high polyreactivity |
| QVQLVESGGGLVQAGGSLRLSCAASGRTFGPYAMGWYRQAPGKERELVAAISSSGSTTYYADSVKGRFTISRDNAKNTVYLQMNSLKPEDTAVYYCAKPSSRDSPYDYWGQGTQVTVSS | low polyreactivity |
| QVQLVESGGGLVQAGGSLRLICAASGRTFKQYAMGWSRQAPGTERELVAAITSSGGSTYYADSVKGRFTISRDNAKNTVYLQMNSLKPEDTAVYYCAAATRGSGRRYDYWGQGTQVTVSS | high polyreactivity |
| QVQLVESGGGLVQAGGSLRLSCAASGLTFTGYFMGWYRQAPGKERELVAAISYSGSSTYYADSVKGRFTISRDNAKNTVYLQMNSLKQEDTAVYYCAATSHAYYPRYYYWGQGTQVTVSS | high polyreactivity |
| QVQLVESGGGLVQAGGSLRLSCAASGSTFWYYAMGWYRQAPGKERELVAAITSSGSTYYADSVKGRFTISRDNAKNTVYLQMNRLKPEDTAVYYCAAEQWYCYGSYDYWGQVTQVTVSS | high polyreactivity |
| QVQLVESGGGLVQAAGSLRLSCAASGSIFVRNAMGWYRQAPGKEREFVAAISWRGGTYYADSVKGRFTISRDNAKNTVYLQMNSLKPEDSAVYYCAARLYPTPGNGALGKTAWVYYWGQGTQVTVSS | low polyreactivity |
| QVQLVESGGGLVQAGGSLRLSCASSGYTLRPNGKGWYRQAPGKERELVAAISSGGSTYYADSVKGRFTISRDNAKNTVYLQMNSLKPEDTAVYYCAAEYWYDYWGQGTQVTVSS | low polyreactivity |

| Sequence | polyreactivity (PSR sort gate) |
| --- | --- |
| QVQLEESGGGLVQAGGILRLSCAASGSIFIPNAMGWYRQAPGKERELVAAIRSGGSTYYADSVKGRFTISRDNAKNTVYLQMNSLKPEDTAVYYCAADTYTYYYYLARYYYWGQGTQVTVSS | low polyreactivity |
| QVQLVESGGGLVQAGGSLRLSCAASGSTLNYYAMAWYRQAPGKEMELVAAITWSGGSTSYADSVKGRFTISRDNAKNTVYLQMNSLKPEDTAVYYCATDFPTVQLYDTDWLSSDMGYWGQGTQVTVSW | low polyreactivity |
| QVQLVESGGGIVQAGGSLRLSSAASGSTFYTKSIGWYIQAPGKERELVAAISGSGGSTYYADSVKGRFTISRDTAKNTVYLQMISLKPEDTAVYSCAARSRYYDTRFDYWGQGTQVTVSS | low polyreactivity |
| QVQLVESGGGLVQAGGSLRLSCAASGFTFSKYGMGWYRQAPGKERELVAAISSGGSTHYADSVKGRFTISRDNAKNTVYLQMNILKPADTAVYYCNASSKFAKPQRYYWGQGTQVTVSS | low polyreactivity |
| QVQLVESGGGLVQAGGSHRLSSAASARIFAVNVMGWYRQAPGKERELVAAISWSDDIKYYADSVKGRFTISRDNAKNTVYLQMNSLKPEDTAVYYCAADFLPLHADDDDEDYWGQGTQVTVST | high polyreactivity |
| LDQLVESGGGLVQAGGSLRLSCAASGSIFGPNAMGWNRKAPGKERELVAAISWSGASTYYADSVKGRFTITRDNEKNTVYLQMNSLKPEDTAVYYCAADYYGVSGSGYGYWGQGTQVTVSS | low polyreactivity |
| QVQLVESGGGLVQAGGSLRLSCAASGNTFTWYTMGWYRQAPGKERELVAVITSDGSTYYADSVKGRFTISRDNAKNTVYLQMNSLKPEDTAVYYCNKATVTGQESYAYDYWGQGTQVTVSS | low polyreactivity |
| QVQLVQSGGGLVQAGGSLRLSCAASGSIIGTYAMGCYRQAPGKERELVADINSGGSTYYADSVKGRFTISRDNAKNTVYLQMNSLKPDDTAVYYCAATGGVLYGTWLSYDRWGGGYWGQGTQVTVSS | low polyreactivity |
| QVQLVESGGGLVQAGGSLRLSCAASGRTFYNYAMGWYRQAPGKERELVATITGRGGRTFYADSVKGRFTISRDNAKNTVYLQMNSLKPEDTAVYYCDAYRSASPYYTLYVEHDYWGQGTQVTVSS | low polyreactivity |
| QVQLVESGGGLVQAGGSLRLSCAASGSTFDYNTMGWYIQAPGKERELVAAISESGGSTYYADSVKGRFTISRDNAKNTVYLQMNSLKPEDTAVYYCATDDFGGYFGEYDYWGQGTQVTVSS | low polyreactivity |
| QVQLVESGGGLVQAGGSLRLSCAASGFTFRYYAMGWYRQAPGKERELVAAINSGDSTNYADSVKGRFTISRDNAKNTVYLQMNSLKPEDTAVYYCATRLWKIPGAMYYWGQGTQVTVSS | high polyreactivity |
| QVQLVESGGGLFQAGGSLRLSCAASGRIFPYKVMGWYRQAPGKERELVAAISSGGTTDYADSVKGRFTISRDNAKNTVYLQMNSLKPEDTAVYYCASTYVYWTWGYDYWGQGTQVTVSS | low polyreactivity |
| QVQLVESGGGLVQAGGSLRLSCAASGLTFVFYAMGWYRQAPGKERELVAAISSSGGSTNYADSVKGRFTISRDNAKNTVYLQMNSLKPEDTAVYYCNAALLGKQYYSNPNYDYWGQGTQVTVSS | high polyreactivity |
| QVQLVESGGGLVQAGGSLRLSCAASGFTFPRYAMGWYRQAPGKERELVAAISYRGGSTYYADSVKGRFTISRDTAKNTVYLQMNSLKPEDTAVSYCNAVGGPVRGYPYDYWGQGTQVTVSS | high polyreactivity |
| QVHLVESGGGLVQAGGSLRLSCAASGSIFFNNAMGWYRQPPGKERELVAAINYGNGSTYYADSVKGRFTISRDNAKNTVYLQMNSLKPEDTAVYYCNADYTGTRSDSVTPEYEYWGQGTQVTVSS | low polyreactivity |
| QVQLVESGGGLVQAGGSLRLSCAASGSIFDEYAMGWYRQAPGKERELVAVISTSGSTYYADSVKGRFTISRDNAKNPVYLQMNCLKPEDTGVYSSNAAIYTSSYRSYDYWGQGTQVTVTS | low polyreactivity |
